The numbers were not newly measured in article PMC10618199, which cites them from elsewhere.

In the series the target is insulin receptor site-2 (Homo sapiens) (UniProt P06213).

insulin, sequence (P01308 90-110): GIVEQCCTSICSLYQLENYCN

The term Kd denotes the constant that tells how readily two partners part at equilibrium. Turning to insulin (from UniProt P01308), the Kd was 0.4 µM.
